According to patent publication US20240209062A1 (INVETX, published 2024):

What follows are binders tested against T1, feline FcRn (soluble portion of large subunit p51 isoform X1 with C-terminal 6xHis-tag, co-expressed with … (feline, UniProt Q5MGS7 21-118)) (assay: SPR, Biacore T200, IgG captured on Protein L chip, feline FcRn flowed over, pH 5.9, 1:1 fit).
T1 construct: Heterodimer made by co-expression in CHO cells, purified on HisTrap FF; also called FcRn complex
Method: The feline FcRn binding experiments at pH 5.9 were completed on a BIACORE™ T200 instrument. A Series S Protein L Sensor chip (Cytiva, Cat. No. BR29205137) was used to capture the antibody variants via the kappa (κ) light chain. The feline variants were captured onto the protein L chip at a flow rate of 10 μL/min for 60 seconds. 1×PBX-P+(Cytiva Cat 28995084) was adjusted to pH 5.9 for the running buffer. The feline FcRn was flowed over the sensor chip at 30 μL/min for 120 seconds contact time and 600 seconds dissociation time. Regeneration of the flow cells was completed by flowing over 10 mM glycine, pH 1.7 at 30 μL/min for 30 seconds. The data were evaluated by the BIACORE™T200 Evaluation software v3.2.1 by fitting to a 1:1 kinetic interaction model.

T1 sequence (chain, as listed by the source limits assumed, chain 1 of 2): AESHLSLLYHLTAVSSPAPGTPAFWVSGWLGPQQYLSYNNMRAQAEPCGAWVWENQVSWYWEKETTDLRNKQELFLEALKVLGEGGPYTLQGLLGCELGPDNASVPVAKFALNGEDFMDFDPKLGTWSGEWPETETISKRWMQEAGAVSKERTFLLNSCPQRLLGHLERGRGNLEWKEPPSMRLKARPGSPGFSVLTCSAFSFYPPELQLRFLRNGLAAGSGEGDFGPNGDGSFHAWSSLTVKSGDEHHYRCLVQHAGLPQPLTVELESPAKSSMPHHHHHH
T1 sequence (Q5MGS7 other isoform, or with tags, fused parts or gaps limits assumed, chain 2 of 2): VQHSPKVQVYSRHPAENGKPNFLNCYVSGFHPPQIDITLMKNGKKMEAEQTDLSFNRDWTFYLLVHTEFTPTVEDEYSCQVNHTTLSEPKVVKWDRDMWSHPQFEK

Kd [nM]	koff [s⁻¹]	kon [M⁻¹ s⁻¹]	Binder
123	0.105	850000	IgG with feline IgG1a Fc variant S252M, T286D (antibody, IgG1a constant domain with MALA mutations (M234A, L244A as printed); variable domains from WO 2023/97275) heavy: DVQLVESGGDLVKPGGSLRLTCVASGLSLTSDSMSWVRQAPGKGLQWVSTLWSNRGTYYTDSVKGRFTISKDNAENTLYLQMNNLKTEDTATYYCASIYYYEADYLHWYFDFWGQGALVTVSSASTTAPSVFPLAPSCGTTSGATVALACLVLGYFPEPVTVSWNSGALTSGVHTFPAVLQASGLYSLSSMVTVPSSRWLSDTFTCNVAHPPSNTKVDKTVRKTDHPPGPKPCDCPKCPPPEAAGGPSIFIFPPKPKDTLMISRTPEVTCLVVDLGPDDSDVQITWFVDNTQVYDAKTSPREEQFNSTYRVVSVLPILHQDWLKGKEFKCKVNSKSLPSPIERTISKAKGQPHEPQVYVLPPAQEELSRNKVSVTCLIKSFHPPDIAVEWEITGQPEPENNYRTTPPQLDSDGTYFVYSKLSVDRSHWQRGNTYTCSVSHEALHSHHTQKSLTQSPG light: EIQMTQSPTSLSASVGDRVTITCRASEGIANNLSWYQQTPGKAPKLLIYATSNLHSGVPSRFSGSGSGTDFTLTISSLQPEDFATYYCQQGFKWPLTFGGGTKLEITRSDAQPSVFLFQPSLDELHTGSASIVCILNDFYPKEVNVKWKVDGVVQNKGIQESTTEQNSKDSTYSLSSTLTMSSTEYQSHEKFSCEVTHKSLASTLVKSFNRSECQRE
38.8	0.0277	714000	IgG with feline IgG1a Fc variant S252Y, R301L (antibody, IgG1a constant domain with MALA mutations (M234A, L244A as printed); variable domains from WO 2023/97275) heavy: DVQLVESGGDLVKPGGSLRLTCVASGLSLTSDSMSWVRQAPGKGLQWVSTLWSNRGTYYTDSVKGRFTISKDNAENTLYLQMNNLKTEDTATYYCASIYYYEADYLHWYFDFWGQGALVTVSSASTTAPSVFPLAPSCGTTSGATVALACLVLGYFPEPVTVSWNSGALTSGVHTFPAVLQASGLYSLSSMVTVPSSRWLSDTFTCNVAHPPSNTKVDKTVRKTDHPPGPKPCDCPKCPPPEAAGGPSIFIFPPKPKDTLYISRTPEVTCLVVDLGPDDSDVQITWFVDNTQVYTAKTSPREEQFNSTYLVVSVLPILHQDWLKGKEFKCKVNSKSLPSPIERTISKAKGQPHEPQVYVLPPAQEELSRNKVSVTCLIKSFHPPDIAVEWEITGQPEPENNYRTTPPQLDSDGTYFVYSKLSVDRSHWQRGNTYTCSVSHEALHSHHTQKSLTQSPG light: EIQMTQSPTSLSASVGDRVTITCRASEGIANNLSWYQQTPGKAPKLLIYATSNLHSGVPSRFSGSGSGTDFTLTISSLQPEDFATYYCQQGFKWPLTFGGGTKLEITRSDAQPSVFLFQPSLDELHTGSASIVCILNDFYPKEVNVKWKVDGVVQNKGIQESTTEQNSKDSTYSLSSTLTMSSTEYQSHEKFSCEVTHKSLASTLVKSFNRSECQRE
56.7	0.0284	502000	IgG with feline IgG1a Fc variant S252Y, L309D (antibody, IgG1a constant domain with MALA mutations (M234A, L244A as printed); variable domains from WO 2023/97275) heavy: DVQLVESGGDLVKPGGSLRLTCVASGLSLTSDSMSWVRQAPGKGLQWVSTLWSNRGTYYTDSVKGRFTISKDNAENTLYLQMNNLKTEDTATYYCASIYYYEADYLHWYFDFWGQGALVTVSSASTTAPSVFPLAPSCGTTSGATVALACLVLGYFPEPVTVSWNSGALTSGVHTFPAVLQASGLYSLSSMVTVPSSRWLSDTFTCNVAHPPSNTKVDKTVRKTDHPPGPKPCDCPKCPPPEAAGGPSIFIFPPKPKDTLYISRTPEVTCLVVDLGPDDSDVQITWFVDNTQVYTAKTSPREEQFNSTYRVVSVLPIDHQDWLKGKEFKCKVNSKSLPSPIERTISKAKGQPHEPQVYVLPPAQEELSRNKVSVTCLIKSFHPPDIAVEWEITGQPEPENNYRTTPPQLDSDGTYFVYSKLSVDRSHWQRGNTYTCSVSHEALHSHHTQKSLTQSPG light: EIQMTQSPTSLSASVGDRVTITCRASEGIANNLSWYQQTPGKAPKLLIYATSNLHSGVPSRFSGSGSGTDFTLTISSLQPEDFATYYCQQGFKWPLTFGGGTKLEITRSDAQPSVFLFQPSLDELHTGSASIVCILNDFYPKEVNVKWKVDGVVQNKGIQESTTEQNSKDSTYSLSSTLTMSSTEYQSHEKFSCEVTHKSLASTLVKSFNRSECQRE
36.1	0.0268	742000	IgG with feline IgG1a Fc variant S252Y (antibody, IgG1a constant domain with MALA mutations (M234A, L244A as printed); variable domains from WO 2023/97275) heavy: DVQLVESGGDLVKPGGSLRLTCVASGLSLTSDSMSWVRQAPGKGLQWVSTLWSNRGTYYTDSVKGRFTISKDNAENTLYLQMNNLKTEDTATYYCASIYYYEADYLHWYFDFWGQGALVTVSSASTTAPSVFPLAPSCGTTSGATVALACLVLGYFPEPVTVSWNSGALTSGVHTFPAVLQASGLYSLSSMVTVPSSRWLSDTFTCNVAHPPSNTKVDKTVRKTDHPPGPKPCDCPKCPPPEAAGGPSIFIFPPKPKDTLYISRTPEVTCLVVDLGPDDSDVQITWFVDNTQVYTAKTSPREEQFNSTYRVVSVLPILHQDWLKGKEFKCKVNSKSLPSPIERTISKAKGQPHEPQVYVLPPAQEELSRNKVSVTCLIKSFHPPDIAVEWEITGQPEPENNYRTTPPQLDSDGTYFVYSKLSVDRSHWQRGNTYTCSVSHEALHSHHTQKSLTQSPG light: EIQMTQSPTSLSASVGDRVTITCRASEGIANNLSWYQQTPGKAPKLLIYATSNLHSGVPSRFSGSGSGTDFTLTISSLQPEDFATYYCQQGFKWPLTFGGGTKLEITRSDAQPSVFLFQPSLDELHTGSASIVCILNDFYPKEVNVKWKVDGVVQNKGIQESTTEQNSKDSTYSLSSTLTMSSTEYQSHEKFSCEVTHKSLASTLVKSFNRSECQRE
31.5	0.0224	712000	IgG with feline IgG1a Fc variant S252Y, I377L (antibody, Printed '1377L' read as I377L; IgG1a constant domain with MALA mutations (M234A, L244A as printed); variable domains from WO 2023/97275; also called S252Y, 1377L) heavy: DVQLVESGGDLVKPGGSLRLTCVASGLSLTSDSMSWVRQAPGKGLQWVSTLWSNRGTYYTDSVKGRFTISKDNAENTLYLQMNNLKTEDTATYYCASIYYYEADYLHWYFDFWGQGALVTVSSASTTAPSVFPLAPSCGTTSGATVALACLVLGYFPEPVTVSWNSGALTSGVHTFPAVLQASGLYSLSSMVTVPSSRWLSDTFTCNVAHPPSNTKVDKTVRKTDHPPGPKPCDCPKCPPPEAAGGPSIFIFPPKPKDTLYISRTPEVTCLVVDLGPDDSDVQITWFVDNTQVYTAKTSPREEQFNSTYRVVSVLPILHQDWLKGKEFKCKVNSKSLPSPIERTISKAKGQPHEPQVYVLPPAQEELSRNKVSVTCLIKSFHPPDLAVEWEITGQPEPENNYRTTPPQLDSDGTYFVYSKLSVDRSHWQRGNTYTCSVSHEALHSHHTQKSLTQSPG light: EIQMTQSPTSLSASVGDRVTITCRASEGIANNLSWYQQTPGKAPKLLIYATSNLHSGVPSRFSGSGSGTDFTLTISSLQPEDFATYYCQQGFKWPLTFGGGTKLEITRSDAQPSVFLFQPSLDELHTGSASIVCILNDFYPKEVNVKWKVDGVVQNKGIQESTTEQNSKDSTYSLSSTLTMSSTEYQSHEKFSCEVTHKSLASTLVKSFNRSECQRE
18.7	0.0139	747000	IgG with feline IgG1a Fc variant S252Y, L309V (antibody, IgG1a constant domain with MALA mutations (M234A, L244A as printed); variable domains from WO 2023/97275) heavy: DVQLVESGGDLVKPGGSLRLTCVASGLSLTSDSMSWVRQAPGKGLQWVSTLWSNRGTYYTDSVKGRFTISKDNAENTLYLQMNNLKTEDTATYYCASIYYYEADYLHWYFDFWGQGALVTVSSASTTAPSVFPLAPSCGTTSGATVALACLVLGYFPEPVTVSWNSGALTSGVHTFPAVLQASGLYSLSSMVTVPSSRWLSDTFTCNVAHPPSNTKVDKTVRKTDHPPGPKPCDCPKCPPPEAAGGPSIFIFPPKPKDTLYISRTPEVTCLVVDLGPDDSDVQITWFVDNTQVYTAKTSPREEQFNSTYRVVSVLPIVHQDWLKGKEFKCKVNSKSLPSPIERTISKAKGQPHEPQVYVLPPAQEELSRNKVSVTCLIKSFHPPDIAVEWEITGQPEPENNYRTTPPQLDSDGTYFVYSKLSVDRSHWQRGNTYTCSVSHEALHSHHTQKSLTQSPG light: EIQMTQSPTSLSASVGDRVTITCRASEGIANNLSWYQQTPGKAPKLLIYATSNLHSGVPSRFSGSGSGTDFTLTISSLQPEDFATYYCQQGFKWPLTFGGGTKLEITRSDAQPSVFLFQPSLDELHTGSASIVCILNDFYPKEVNVKWKVDGVVQNKGIQESTTEQNSKDSTYSLSSTLTMSSTEYQSHEKFSCEVTHKSLASTLVKSFNRSECQRE
36.1	0.0258	716000	IgG with feline IgG1a Fc variant S252Y, I377Y (antibody, Printed '1377Y' read as I377Y; IgG1a constant domain with MALA mutations (M234A, L244A as printed); variable domains from WO 2023/97275; also called S252Y, 1377Y) heavy: DVQLVESGGDLVKPGGSLRLTCVASGLSLTSDSMSWVRQAPGKGLQWVSTLWSNRGTYYTDSVKGRFTISKDNAENTLYLQMNNLKTEDTATYYCASIYYYEADYLHWYFDFWGQGALVTVSSASTTAPSVFPLAPSCGTTSGATVALACLVLGYFPEPVTVSWNSGALTSGVHTFPAVLQASGLYSLSSMVTVPSSRWLSDTFTCNVAHPPSNTKVDKTVRKTDHPPGPKPCDCPKCPPPEAAGGPSIFIFPPKPKDTLYISRTPEVTCLVVDLGPDDSDVQITWFVDNTQVYTAKTSPREEQFNSTYRVVSVLPILHQDWLKGKEFKCKVNSKSLPSPIERTISKAKGQPHEPQVYVLPPAQEELSRNKVSVTCLIKSFHPPDYAVEWEITGQPEPENNYRTTPPQLDSDGTYFVYSKLSVDRSHWQRGNTYTCSVSHEALHSHHTQKSLTQSPG light: EIQMTQSPTSLSASVGDRVTITCRASEGIANNLSWYQQTPGKAPKLLIYATSNLHSGVPSRFSGSGSGTDFTLTISSLQPEDFATYYCQQGFKWPLTFGGGTKLEITRSDAQPSVFLFQPSLDELHTGSASIVCILNDFYPKEVNVKWKVDGVVQNKGIQESTTEQNSKDSTYSLSSTLTMSSTEYQSHEKFSCEVTHKSLASTLVKSFNRSECQRE
101	0.0719	715000	IgG with feline IgG1a Fc variant S252M, T286E (antibody, IgG1a constant domain with MALA mutations (M234A, L244A as printed); variable domains from WO 2023/97275) heavy: DVQLVESGGDLVKPGGSLRLTCVASGLSLTSDSMSWVRQAPGKGLQWVSTLWSNRGTYYTDSVKGRFTISKDNAENTLYLQMNNLKTEDTATYYCASIYYYEADYLHWYFDFWGQGALVTVSSASTTAPSVFPLAPSCGTTSGATVALACLVLGYFPEPVTVSWNSGALTSGVHTFPAVLQASGLYSLSSMVTVPSSRWLSDTFTCNVAHPPSNTKVDKTVRKTDHPPGPKPCDCPKCPPPEAAGGPSIFIFPPKPKDTLMISRTPEVTCLVVDLGPDDSDVQITWFVDNTQVYEAKTSPREEQFNSTYRVVSVLPILHQDWLKGKEFKCKVNSKSLPSPIERTISKAKGQPHEPQVYVLPPAQEELSRNKVSVTCLIKSFHPPDIAVEWEITGQPEPENNYRTTPPQLDSDGTYFVYSKLSVDRSHWQRGNTYTCSVSHEALHSHHTQKSLTQSPG light: EIQMTQSPTSLSASVGDRVTITCRASEGIANNLSWYQQTPGKAPKLLIYATSNLHSGVPSRFSGSGSGTDFTLTISSLQPEDFATYYCQQGFKWPLTFGGGTKLEITRSDAQPSVFLFQPSLDELHTGSASIVCILNDFYPKEVNVKWKVDGVVQNKGIQESTTEQNSKDSTYSLSSTLTMSSTEYQSHEKFSCEVTHKSLASTLVKSFNRSECQRE
